Measurements as given in PMC7300195 (Frontiers in Immunology, 2020).

How the values were obtained:
Assay in all cases: BLI
Settings in all cases: both partners purified
[1] = target: hexameric NiV G: two G ectodomain headgroups linked by a foldon trimerization domain via short glycine linkers (Nipah virus, Malaysia (AAK50545.1), UniProt Q9IH62)
[2] = target: NiV G trimer: NiV G head domain residues 172-602 coupled to an N-terminal foldon domain (Nipah virus, Malaysia (AAK50545.1), UniProt Q9IH62)
[3] = target: T1, NiV G ferritin 24-mer nanoparticle: NiV G ectodomain residues 172-602 linked to the C-terminus of ferritin … (Nipah virus, Malaysia (AAK50545.1), UniProt Q9IH62)
T1 construct: copies: 24

Measured: binding result

B1: m102.4 monoclonal antibody (HeV G-specific antibody), human IgG1/kappa (antibody, V domains shown)
VH: EVQVIQSGADVKKPGSSVKVSCKSSGGTFSKYAINWVRQAPGQGLEWMGGIIPILGIANYAQKFQGRVTITTDESTSTAYMELSSLRSEDTAVYYCARGWGREQLAPHPSQYYYYYYGMDVWGQGTTVTVSS
VL: EIVMTQSPGTLSLAPGERATLSCWASQSVRNNYLAWYQQKPGQAPRLVIYNGSTRATGIPDRFSGSGSGTDFTLTISRLDPEDFAVYYCQQYGNSRRVTFGGGTKVEIK
binds: all assays above
